Here are results for three substances from patent publication US20190252037A1.

pKd: −log10 of the molar value. Where two headings read alike, the source gives them in different places.

As a reminder, the pKd is −log10 of the Kd, conventionally taken in molar units. Read a low pKd as a high Kd.

The target in test [1] is heterotrimeric polymerase from influenza A/little yellow-shouldered bat/Guatemala/060/2010 (H17N10), wild type (Influenza A/little yellow-shouldered bat/Guatemala/060/2010 (H17N10)).
The target in test [2] is 2-repeats (14 amino acids) Ser-5 phosphorylated CTD peptide, fluorescently labelled with FAM at the N-terminal end.
Test [3] deals with 4-repeats (28 amino acids) Ser-5 phosphorylated CTD peptide, fluorescently labelled with FAM at the N-terminal end.
Test [4] has the same target. This is another data set of the same source.
Test [5] deals with 4-repeats non-phosphorylated CTD peptide, fluorescently labelled with FAM at the N-terminal end.
Test [6] addresses 2-repeats (14 amino acids) Ser-5 phosphorylated CTD peptide, fluorescently labelled with FAM at the N-terminal end. This is another data set of the same source.
The target of test [7] is 4-repeats (28 amino acids) Ser-5 phosphorylated CTD peptide, fluorescently labelled with FAM at the N-terminal end. The source holds these as a separate data set.

For “Ser-5-phosphorylated 28-mer CTD peptide (four heptad repeats), not labelled”, the apparent KD (KD') in test [1] came out at 2700 nM.
Consider “heterotrimeric polymerase from human influenza B/Memphis/13/03, wild type (enzyme)”, for which the figures for the negative logarithm of the Kd (pKd) in test [2] and in test [3] were 5.38 and 5.54, respectively.
For “heterotrimeric polymerase from influenza A/little yellow-shouldered bat/Guatemala/060/2010 (H17N10), wild type (enzyme)”, the pKd in test [4] was 6.10; in test [5], less than 5.00; in test [6], 5.21; in test [7], 6.05.
